LOX bound to Coll IV in HG medium, % of normal-glucose control and LOX bound to FN in HG medium, % of normal-glucose control data for two substances are collected here from paper PMC7401919.

Assay [1] deals with lysyl oxidase (rat (endogenous in RRECs)) (UniProt P16636). The assay can be described thus: co-IP.
The target is the same in assay [2]. As to the kind of experiment: co-IP. The source holds these as a separate data set.

Like-named read-outs stand apart in the source and are kept apart here.

UniProt P16636, sequence (P16636 22-411): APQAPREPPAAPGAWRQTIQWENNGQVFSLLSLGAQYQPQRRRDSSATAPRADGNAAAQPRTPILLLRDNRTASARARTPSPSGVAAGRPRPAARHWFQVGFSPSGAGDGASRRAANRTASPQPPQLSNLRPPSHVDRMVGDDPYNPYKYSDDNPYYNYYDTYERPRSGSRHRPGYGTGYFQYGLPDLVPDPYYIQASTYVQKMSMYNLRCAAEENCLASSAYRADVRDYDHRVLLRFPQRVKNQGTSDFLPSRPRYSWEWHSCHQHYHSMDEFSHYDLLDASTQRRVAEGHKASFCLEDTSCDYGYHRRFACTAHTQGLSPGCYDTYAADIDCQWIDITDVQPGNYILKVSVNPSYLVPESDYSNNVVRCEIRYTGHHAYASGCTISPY

For collagen IV (natural protein), the LOX bound to Coll IV in HG medium, % of normal-glucose control in assay [1] is 144 % of control; in assay [2] it was 138 % of control.
Take “fibronectin (from UniProt P04937 25-2477) (natural protein)”: the LOX bound to FN in HG medium, % of normal-glucose control in assay [1] was 168 % of control; in assay [2], 156 % of control.
